# Reference: the NTF2 design screens of Basanta et al. (2020)
# Test: protease stability score; higher = more stable; yeast display proteolysis, trypsin and chymotrypsin;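 further: relative to predicted unfolded state with 0 unfolded-like and 1 meaning tenfold more protease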
row,Sequence,protease stability score
1,SEEHELSHHWADLMFHWMLTGDEEMFEHFADPHVRLHVNGKDIHGREKFVEWLREELEKIKNLTYRLHDVEIQGDKVHLTVKVDVNGKRLDTRVHIDLVNGRVRSIEIRHR,1.42
2,TEEEKDSDDAFRHWVHSMRTGDEDRLRELIDPNARLLVNGRELHGMEWIITILSKEIKELRFKDVRLRDRDIVGNYAEVDVEIDMTIGEKEDSRDVVIFVLKVNGRWVIKEMHIR,1.46
3,DEDQKAATRFTELLVRLLFTGDEEMWLQLADPRMILDFENHSEHGMKLVVKLLHETIERRGMRIDDMHHTHIEFQGEWVRVHVRVHERIGDKRISVEVEYKSLKVNGRWILHEIHIH,0.372
4,SEDENILRRVVNILLHVWMTGDEDSLKELIDPHARMDFDGQEVHGREEITRLIRTILHELGIKHFELHRHHIDVQGDKAHIEVDGVDDVDGRKVKVIIRMHVLKVNGRWKTRIVYFERQ,1.65
5,DDEEEDYERAFKIFIDFVKTGDWRLLKELADPNVRNVIGDKEFMGRETFTKWVFDVRAQFDHVEIRIRDFEIQGNKLILYTELHLHQGDKSLTLELRIVILKVNGKWLMHSFRLQ,1.4
6,DEDEEQLHEMVRIFLENMQTGNFEALLNYMDPNAKRRDVQGDKDITYIGREQAKEHDEKLDRHLGVKHFEIKRITIQGEKADIDTRLLFNGQLRDVRIHIIIVNGKLSYLEVQID,0.897
7,SEEHEEERHHVEDLLRALWTGNEEHLKKLADPHMRTILIVNGKQLDLHGWRDMWRALREIRERLGIDHEHIHRSRIYNGRLEIDSRVEVDGVHHIVKIRVDVIDGKNHEFKIEFR,1.63
8,SEEEHHAEEFVKIFTMTNLTGDFTTLEKLADPNVQIDVGDKHFHGREEMLKLIQDERREFGFKHLHLEIDRIETQGNFLDVHITVIIRVNGVEMRHKRRLTILKIDGQWHIKSVEVD,1.27
9,DEHEEAFREFLRLLLESLRTGDEHTLKRLIDPHARIDIDGQEFVGMEHLEHILKNMIKHIRYEDIEIEHFEFINGQVRFKTRYHGRINGKRDTLHIHIIITKINGKWVLEQLEFR,2.15
10,SEDEDIAKEILRLLLEALRTGDWHTVHRLMDPHARVHVNGRDFIGMEEVLRWLEEFLRHMRLRSLTVHDIRIFDGRLHVDSRSDVEIDGRRISIETEVIILKVDGRWHVKSIIFR,1.36
11,SELEEQVKYALELFIRTFETGDEDLSSQLLDPNTRLEINGREIHGRELVSKFWLKFATEMRLRRTHTRSIRNVDGKAINHTTIDVEIGDKRTTIDVELIAYKFDGRWVNEKIQFH,0.828
12,SKEEEHAYRVMEIILKQHLTGDEEEISRLLDPHVKMDVDGVILHGRENASRWLFEWIRFFKGLRLHIHIEDIQVQGEKSHHHTRLHITINGRTQNYRFKVHAVVVNGQIKHFELDWD,1.39
13,DEDHESWERAYNIYLHALRTGDEERNHELADPRVLTHIDGVELHGREMMTRVMTELRIHEHRIHRVHIIGEKIDIDIEVRFRWNGKLVDTRTHEHRLKVDGKWLLTRFEVR,0.76
14,SELKESATDIMRIYIEAWLTGDFEEITRLADPRMRVINDFNGRTQVNHGRELFRETLKHWRIKHVHIDDMRSFEGRSESHGTVHGQFNGVEDEVRFEVRMVVVDGVLHSMTIIFK,1.18
15,DERSRNLEHYAKDLVEDWLTGDFRRYSKLADPNALTIFNGVELHGRELVIRMMNELRHRIDHLEIRIEDSHIQGNKVKIDSHRIMNVNGVEYRTKTEEWFDIVDGRVKSVEIRVH,0.426
16,SELEDATEFAIKVLLEVLRTGDWLEFEKMVDPNVRSSINGVELHGRRRLSHEILREWMELGIKHLDVHLKHKELQGDKLILIVELRLDVNGREIRRETELILLKVDGRWLLTEVRVK,1.58
17,DELEKYVLDMVMLWIRSHSTGDEDALRRLADPHTRVIINGKELHGMDDVRRHIEEIRIHEEHVHVERVEIQGNKAIVDTSRHIWIDFNGQNIRVDVKTRFHLEKIDGVWYLKEVRIG,1.4
18,DTTEKHQKDMARAQIHSLETGDFKELMELLDPNVRFEFEVGDKRIERHGRELMVHFILKEYEEIRIRIDSWRVVNGVVKIELRLHVGDKESRIEIYLLIINGQAKSVHFDVR,1.09
19,DEEQRHAHKIVDRLLELIMTGDEDDLYRLADPNTRIDINGKKFHGMDFWFHLLRRVDHFEVEDFSLKRSDRVDGVAELDHRTTIRVIIGDKTIRLEIRHRMWVVKVDGRWKIEEVVIR,1.04
20,SREEELAKKLLEIYSRSVETGDWKKLFELMDPNTRVEQGEWHFHGREEFHKLVHKFLERADVVHVEIDRIKVIGDFVHIDVVLHIHQGEFHHVVRTRLDYLKFNGRWVLQTIRIE,1.6
21,SETEKFAEIALKLWIRRLRTGDEHEESMLADPNTLYVQGDKNIHGMERISRFFKEILTRHGITFNHFHLEHIEVQGNKVRLDLRVDGEFDGQRMNQEVELISIKVDGRWFLESVIIR,1.62
22,SEDERQSEHMNRLIFESLETGDFHKLMRLMDPHARAVVDGREVHGMELLEEILKRIKDELGVTRIRTRIRTERTQGNKADNITEYEIGDKSFTVIIHNQKIDGRWVIHEVRFE,1.24
23,KEEEEKLERLAELVIELFLTGDWKTLHSLLDPHYRSEIDGRTVHGRESHQTLLEEILRHLRIRRVHIEEYRIIDGVAWIDSRITLEINGRTVDTHMHIHLEFFNGRLHSIRVEIH,2.47
24,REEEREAKEWLERLIRDIITGDEDKMTNLIDPNVRILINGKHIHGWELYFKIWIDHVERFPNMRVDYHVKSITFFNGRIIMYYEERIHINGKEIRVDVHIQALKVNGRWILESVHNE,1.54
25,DDHEHFHREIWRTWLELQLTGDPHRLERLADPHVRFVYGDKVFHGREKMSEHFERENRELGIDHVEVRIKDSRFIDGRVHHDSELIIRVDGRTYKHDVKVIIDKVDGRWNIQKVEIR,1.07

row,Sequence,protease stability score
1,DELERVSERAIKIFLHVFKTGDEHMHERMADPNVRVHVDGQDLHGREETVEHMLHFFERIKNVKIDVEDSKAYGDKVIVHSRLHWNGVTQHVELEMRKVNGRWEVTEIIIH,0.1
2,SEEEEDSLIAWKLYFEIEQTGDEKSLEHYMDPDTRYSQGEFRMHGREYTYHIIFRNRKRLGWDRVEVRLHSYEIINGRIKLDMRVHVNGVDINLLVIAFKFNGKWTIETVRIE,1.36
3,DEEEEHAITFMKILIHLWITGDWETLKRLADPDTKVIERFNGKRVEIHGRELWSKIRKEIIDQLRIRIHPHHVSVVGDKLYSDEHLVFHYNGRDIRLDIHLEMVVVNGRMKHFRFHEE,1.06
4,SEDDERSEKAAEKWLHNFVTGDFKEMSDNLDPNTRLHVDGKDFVGMELVLKIFEDLWDHLGVDHVLINDSHVHVIDGKLHSHLDVTEEVNGRRRRVEIIIIAVKVNGRWRQKEVHIMFR,0.794
5,SEDDEKVREAFELWARLVLTGDEEIIEKMVDPHMRIEIGDKELHGRDELRRWIREIRIRDIDVHDVRVQGDKAESDLKVRMDIDGVETRRHTHLIMHKFDGRWIIESIDVR,1.36
6,DEMEKMSRDVHKQLKNAFETGDESEMERLLDPHAKIDIGDKRLHGMEEYSHLLHEWRIKDLHIKDIQVQGDKAISDTHRYLEIGDKEYEREVIVYVIKVDGRWIIHSLVFR,0.777
7,SEEDEHMRRLVEIIIHNWHTGDEEKLANMMDPNAKSNINGVELIGRDLITSFLKEELKRLGVKHVHDTEIHLQGNKSIIHSRVHVNGVDIEMEIIIIIIDGVIKEVEWRRR,1.96
8,DEHKESLKRAFELWVETVKTGDEQRTEELIDPHVRVVIGDKEIHGMKETSRHILEMRVKSFRLRHYHFVNGRVNILGEIDGEFDGRRRDVDITIHIQKFNGRWLIDELHFG,2.27
9,DEWDEMLHEWAERIIKHFITGDWESFVKMADPHVRLHVDGKDFIGRERMEEAFKELLERLGVDHVELHHVRVINGQNDVDEDVKVGNKRLKVIHHLVVYNGRIKSIEIETR,1.39
10,SDEERDANRFIKLWVDAMTTGDWEEISLLLDPNVLLLVGDKTYHGREEFVRIMHELIERVKNIRVEIKHREVQGDKIRVDTVLRVNGRTLREHVVMEKVNGQWVIRSLEFD,2.3
11,TEDEELIERYVRFFLKIMETGDEKLTERMMDPDARFEIGDKEEHGREAIYEWLSKIKNIRIKIHHIKIQGDKLHLDVRFHINGKEIEVEIVSKKIDGKWMVHSVIVK,1.5
12,DEDREHVKWMIEKEIHAWRTGDEDELRKMLDPNVKFEQGDKRIHGREILMERMRKLGADHVEFQLHDIELQGEKVLLFIELRIHVNGRDIRLEIIIYLDKVNGQWHVRHYEIR,0.745
13,LEDEEMLEEVDKRLVHAFLTGDFNTIERMLDPDTKVRINGRESIGRENVAKVLHEERRHMRLDIIEIRRIRLVGEFIHSDTRLDININGRRIKFTFRIIVLKINGQWIVESLEID,2.06
14,DEEHREMRDVLDELLEAFHTGDEHSLNRYADPHARHHVNGKEYHGRELMVKIWMDLGIDHVHLEEIHLQGEKLHMDTRVTVNGRTIKVTIIILKINGRWKLTHVEIK,0.958
15,HEEDHHMEIAIELNQRMLQTGDEELLEKLADPSVRLKQGDKDVHGRHVVSRWLHEVIMKFPNVTIIERHVRIIDGKVHFHGDWHFNGVDQHVTIIAEKVNGRWILKTIELK,0.983
16,SEEEEIYKEYAELMIHIIKTGDEDALRLLLDPNTQTFINGRNIHGMDEHIRHWRHFFKKFKNMRIEITRLEIQGDKVRIHMRIEQGDKILHLLFIIVIINGRNEEIEVRIHTQ,1.69
17,DELKRYLEELVRRVLQATLTGDEDHFSHLADPTTRLILEDEDHHVENHGREDVRRFMEEHFRRVDHWHISLRRLHPVGNKMHSTGTLRVTFDGVKVDVEVRNHFVMVDGRIKFWKIEFI,1.23
18,DEDTNIEKMASQRIFHDIMTGDFQSLWEMFDPNARLIQGDWHSHGRENIIIYYMELVEKLGVTNVRFRLEDEDSQGDKVIIHSSLNINGRHFKLDIHAVKINGRWFIREVDVRLH,1.4
19,DEEEDAKKFVLDVWRETLETGDEKLLLELIDPHVRIIIGDKEDHGRETLLHHFREIRFEDFQVRDIRVIGEKIHIHGEHLIRFDGRRVRLEIEIIMTKINGRWLVEEIRIR,2.58
20,DEDEKIVKHMLEVLIHLILTGDWEMFQKLADPNTRLDINGREQVGWESVTKNLEHMRYHDIRSQHIEIQGNKLRNLTRVDGEVDGVRREIEVHIYSTKINGKWRLTSMQFH,1.1
21,SEEKEEVKEVVEHVLEVMLTGDEEHSRELVDPHVRIEVGDKSRHGRDDMAHWLSHARIHRLHIKRSEVIGDYLHIDVHIDVEYNGKRMTTDVRRHELKVDGRWFIREERIE,1.42
22,DERNDRAREYVELWEDALRTGDEHILMELADPHTRIEIGEFEIIGREEIMRFMNEIRVHVRESRIKRVTEIDGVLFADIHVRREFRFDGRSKEVRTDVIIIFNKFDGKWLLESVHVK,-0.01
23,DEREEIIRKALELFIFSMKTGDEHTLTELLDPNVRLLVGDKEFHGREVFHILIQQFKNIRVEHFEHKDWYEQGDKMRITGRLTFRQGDKRTEIDTTLIILKINGRWIMHDIVIS,2.17
24,DEEKEDAYRNAELWIKSINTGDEDVLTDLLDPHARIDIGDKKLHGMESFTKLYRDLGFRIKDFHLKDIRIYGEKIEIHGIIHFEQGDKEHNEDTTIILLKVNGKWIIKRLRVN,1.5
25,EERERLAEELARIWLEVLETGDWKMLHDLADPNVRNVVGDKEQHGREEMSRFYTEWHEHIRIHRIEIESIDIQGNKIQIHGRIDMEINGKRRDQRLEIIIIVINGRIKRLEVRLH,0.948
